The record followed here is US20230125550A1 (ARCELLX, published 2023).

To fix the notation:
B1: SEQ ID NO: 385 (designed binder)
chain: MGSWEEFWERLDAIDTRLWALGGSEAELAAFEKEIAAFESELQAYKGKGNPEVEVLRNDAADIREPLQAYRHN
notes: D domain, on phage
B2: SEQ ID NO: 386 (designed binder)
chain: MGSWMEFWERLEAIDMRLWALGGSEAELAAFEKEIAAFESELQAYKGKGNPEVEYLRDDAAVIRDDLQAYRHN
notes: D domain, on phage
B3: SEQ ID NO: 335 (designed binder)
chain: MGSWDEFYYRLEAIEMRLGALGGSEAELAAFEKEIAAFESELQAYKGKGNPEVEELRHYAAQIRHMLQAYRHN
notes: D domain, on phage
B4: SEQ ID NO: 336 (designed binder)
chain: MGSWEEFYDRLEAIYNRLGALGGSEAELAAFEKEIAAFESELQAYKGKGNPEVEVLREYAADIREMLQAYRHN
notes: D domain, on phage
B5: SEQ ID NO: 421 (designed binder)
chain: MGSWNEFAWRLDAIYSRLAALGGSEAELAAFEKEIAAFESELQAYKGKGNPEVEWLRVAAANIRYELQAYRHN
notes: D domain, on phage
B6: SEQ ID NO: 425 (designed binder)
chain: MGSWYEFSMRLDAIYDRLMALGGSEAELAAFEKEIAAFESELQAYKGKGNPEVEQLRGYAANIRNELQAYRHN
notes: D domain, on phage
B7: SEQ ID NO: 422 (designed binder)
chain: MGSWTEFAWRLDAIYDRLLALGGSEAELAAFEKEIAAFESELQAYKGKGNPEVEWLRHVAANIRRELQAYRHN
notes: D domain, on phage
B8: SEQ ID NO: 428 (designed binder)
chain: MGSWFEFYDRLDAIYMRLIALGGSEAELAAFEKEIAAFESELQAYKGKGNPEVEVLRRYAANIRAELQAYRHN
notes: D domain, on phage
B9: SEQ ID NO: 429 (designed binder)
chain: MGSWFEFYMRLDAIYDRLTALGGSEAELAAFEKEIAAFESELQAYKGKGNPEVERLRTFAANIRKELQAYRHN
notes: D domain, on phage
B10: SEQ ID NO: 427 (designed binder)
chain: MGSWIEFEVRLDAIYNRLAALGGSEAELAAFEKEIAAFESELQAYKGKGNPEVERLRRYAANIRHELQAYRHN
notes: D domain, on phage
B11: SEQ ID NO: 430 (designed binder)
chain: MGSWYEFDYRLDAIYDRLAALGGSEAELAAFEKEIAAFESELQAYKGKGNPEVERLRKWAANIREELQAYRHN
notes: D domain, on phage
B12: SEQ ID NO: 423 (designed binder)
chain: MGSWVEFSIRLDAIYTRLVALGGSEAELAAFEKEIAAFESELQAYKGKGNPEVEMLRKGAANIRKELQAYRHN
notes: D domain, on phage
B13: SEQ ID NO: 431 (designed binder)
chain: MGSWSEFYLRLDAIYDRLDALGGSEAELAAFEKEIAAFESELQAYKGKGNPEVEWLRKTAANIREELQAYRHN
notes: D domain, on phage
B14: SEQ ID NO: 424 (designed binder)
chain: MGSWVEFYIRLDAIYVRLMALGGSEAELAAFEKEIAAFESELQAYKGKGNPEVEKLRSYAANIRQELQAYRHN
notes: D domain, on phage
B15: SEQ ID NO: 426 (designed binder)
chain: MGSWVEFIYRLDAIYDRLEALGGSEAELAAFEKEIAAFESELQAYKGKGNPEVEVLRRYAANIRNELQAYRHN
notes: D domain, on phage
B16: SEQ ID NO: 374 (designed binder)
chain: MGSWEEFFTRLDAINERLEALGGSEAELAAFEKEIAAFESELQAYKGKGNPEVEMLRYEAAEIRHMLQAYRHN
notes: D domain, on phage
B17: SEQ ID NO: 373 (designed binder)
chain: MGSWFEFNYRLGAIEDRLWALGGSEAELAAFEKEIAAFESELQAYKGKGNPEVEMLRQIAAEIREFLQAYRHN
notes: D domain, on phage
B18: SEQ ID NO: 334 (designed binder)
chain: MGSWDEFAWRLDVIFARLGALGGSEAELAAFEKEIAAFESELQAYKGKGNPEVEELRKNAAQIRDGLQAYRHN
notes: D domain, on phage
B19: SEQ ID NO: 387 (designed binder)
chain: MGSWLEFMWRLDAIDERLWALGGSEAELAAFEKEIAAFESELQAYKGKGNPEVELLREMAAAIRDDLQAYRHN
notes: D domain, on phage
B20: SEQ ID NO: 361 (designed binder)
chain: MGSWDEFEQRLIAIEERLFALGGSEAELAAFEKEIAAFESELQAYKGKGNPEVEWLREEAAVIRKYLQAYRHN
notes: D domain, on phage
B21: SEQ ID NO: 365 (designed binder)
chain: MGSWHEFDQRLWAIEERLWALGGSEAELAAFEKEIAAFESELQAYKGKGNPEVETLRLYAALIRHDLQAYRHN
notes: D domain, on phage
B22: SEQ ID NO: 333 (designed binder)
chain: MGSWEEFAQRLYAIEWRLYALGGSEAELAAFEKEIAAFESELQAYKGKGNPEVEVLRYVAAQIRYHLQAYRHN
notes: D domain, on phage
B23: SEQ ID NO: 352 (designed binder)
chain: MGSWDEFGRRLYAIEWRLYALGGSEAELAAFEKEIAAFESELQAYKGKGNPEVEKLREIAAVIRSNLQAYRHN
notes: D domain, on phage
B24: SEQ ID NO: 327 (designed binder)
chain: MGSWTEFVWRLEAIWDRLDALGGSEAELAAFEKEIAAFESELQAYKGKGNPEVEVLREDAAVIRHFLQAYRHN
notes: D domain, on phage
B25: SEQ ID NO: 375 (designed binder)
chain: MGSWYEFSNRLDAIGERLWALGGSEAELAAFEKEIAAFESELQAYKGKGNPEVEILRHQAAEIRWFLQAYRHN
notes: D domain, on phage
B26: SEQ ID NO: 377 (designed binder)
chain: MGSWVEFWDRLWAIDYRLFALGGSEAELAAFEKEIAAFESELQAYKGKGNPEVEALRDEAAWIREELQAYRHN
notes: D domain, on phage
B27: SEQ ID NO: 384 (designed binder)
chain: MGSWDEFEERLFAIDERLWALGGSEAELAAFEKEIAAFESELQAYKGKGNPEVEALRYLAADIREELQAYRHN
notes: D domain, on phage
B28: SEQ ID NO: 378 (designed binder)
chain: MGSWVEFVDRLWAIDERLDALGGSEAELAAFEKEIAAFESELQAYKGKGNPEVEFLRTWAAWIREDLQAYRHN
notes: D domain, on phage
B29: SEQ ID NO: 366 (designed binder)
chain: MGSWVEFWDRLDAIEGRLWALGGSEAELAAFEKEIAAFESELQAYKGKGNPEVEDLRWLAAEIRADLQAYRHN
notes: D domain, on phage
B30: SEQ ID NO: 376 (designed binder)
chain: MGSWYEFWGRLDAIEERLWALGGSEAELAAFEKEIAAFESELQAYKGRGNPEVEMLREDAAEIRGQLQAYRHN
notes: D domain, on phage
B31: SEQ ID NO: 362 (designed binder)
chain: MGSWVEFDQRLGAIWDRLVALGGSEAELAAFEKEIAAFESELQAYKGKGNPEVEHLRQGAAVIRDDLQAYRHN
notes: D domain, on phage

In the experiment the target is T1, recombinant human CD123-Fc (human, UniProt P26951 19-305).
T1 construct: not shown: Fc part of CD123-Fc
T1 sequence: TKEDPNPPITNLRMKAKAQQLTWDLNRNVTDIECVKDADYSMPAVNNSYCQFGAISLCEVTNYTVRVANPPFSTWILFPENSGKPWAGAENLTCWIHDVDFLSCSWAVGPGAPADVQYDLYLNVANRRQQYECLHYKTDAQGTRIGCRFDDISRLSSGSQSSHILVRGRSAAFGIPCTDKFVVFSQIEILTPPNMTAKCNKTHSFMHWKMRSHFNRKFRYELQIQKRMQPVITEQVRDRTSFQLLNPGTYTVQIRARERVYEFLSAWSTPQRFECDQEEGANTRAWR
The experiment is described as follows: phage ELISA, captured CD123-Fc. Here is the method: Individual colonies containing phagemid from BCMA panning output were picked and phage were rescued in 96-well format using VCSM13 helper phage following standard protocols. To assay target binding by ELISA, 96-well plates were coated with 1.3 microg/ml goat anti-human IgG1-Fc antibody followed by incubation with 5 nM of recombinant human target (BCMA-Fc, CD123-Fc, AFP, or AFP123) or IgG1-Fc. 50 microl of rescued phage diluted 5× in ELISA blocking buffer was then added to each well. Binding was detected using an HRP-conjugated anti-M13 antibody and the ELISA ratio for each sequence is reported as the absorbance at 450 nm for target (i.e., BCMA-Fc, CD123-Fc, AFP, or AFP123) divided by that for IgG1-Fc averaged across all screened wells containing that clone.
(In general: ELISA stands for enzyme-linked immunosorbent assay.)
Consider B1, for which the ELISA_avg is 6.8 ratio A450 target/IgG1-Fc.

As for B2, the ELISA_avg came to 4.2 ratio A450 target/IgG1-Fc.

B3: the ELISA_avg came out at 7.2 ratio A450 target/IgG1-Fc.

On to B4, for which the ELISA_avg turned out to be 18.6 ratio A450 target/IgG1-Fc.

With B5, the ELISA_avg was 17.7 ratio A450 target/IgG1-Fc.

As to B6, the ELISA_avg turned out to be 13 ratio A450 target/IgG1-Fc.

Turning to B7, the ELISA_avg came out at 16.1 ratio A450 target/IgG1-Fc.

Consider B8, for which the ELISA_avg was 13.6 ratio A450 target/IgG1-Fc.

Consider B9, for which the ELISA_avg amounted to 13.1 ratio A450 target/IgG1-Fc.

On to B10, for which the ELISA_avg turned out to be 20.8 ratio A450 target/IgG1-Fc.

As for B11, the ELISA_avg was 24.9 ratio A450 target/IgG1-Fc.

With B12, the ELISA_avg is 15.1 ratio A450 target/IgG1-Fc.

B13: the ELISA_avg is 15.7 ratio A450 target/IgG1-Fc.

B14: the ELISA_avg was found to be 16.1 ratio A450 target/IgG1-Fc.

Consider B15, for which the ELISA_avg amounted to 17 ratio A450 target/IgG1-Fc.

B16: the ELISA_avg was determined as 3.9 ratio A450 target/IgG1-Fc.

With B17, the ELISA_avg was 6.9 ratio A450 target/IgG1-Fc.

Take B18: the ELISA_avg was found to be 4.6 ratio A450 target/IgG1-Fc.

As for B19, the ELISA_avg was determined as 5.1 ratio A450 target/IgG1-Fc.

Regarding B20, the ELISA_avg is 5.9 ratio A450 target/IgG1-Fc.

As to B21, the ELISA_avg came out at 3.3 ratio A450 target/IgG1-Fc.

Regarding B22, the ELISA_avg is 16.9 ratio A450 target/IgG1-Fc.

With B23, the ELISA_avg came out at 5.8 ratio A450 target/IgG1-Fc.

With B24, the ELISA_avg came to 3.6 ratio A450 target/IgG1-Fc.

Consider B25, for which the ELISA_avg was determined as 3.9 ratio A450 target/IgG1-Fc.

For B26, the ELISA_avg turned out to be 3.6 ratio A450 target/IgG1-Fc.

B27: the ELISA_avg came to 5 ratio A450 target/IgG1-Fc.

Take B28: the ELISA_avg was determined as 3.2 ratio A450 target/IgG1-Fc.

For the molecule B29, the ELISA_avg is 3.5 ratio A450 target/IgG1-Fc.

B30: the ELISA_avg was 5.4 ratio A450 target/IgG1-Fc.

On to B31, for which the ELISA_avg turned out to be 5.3 ratio A450 target/IgG1-Fc.
